Measured values: patent US20200262898A1 (INTEGRAL MOLECULAR, published 2020)

Columns and labels:
[1] = molecular target: T1, IGSF8 (UniProt Q969P0 28-613, limits assumed); experiment: flow cytometry on cells transfected with the target; signal over mock-transfected cells (background = 1.0)
T1 construct: whole, on cells
T1 sequence (looked up): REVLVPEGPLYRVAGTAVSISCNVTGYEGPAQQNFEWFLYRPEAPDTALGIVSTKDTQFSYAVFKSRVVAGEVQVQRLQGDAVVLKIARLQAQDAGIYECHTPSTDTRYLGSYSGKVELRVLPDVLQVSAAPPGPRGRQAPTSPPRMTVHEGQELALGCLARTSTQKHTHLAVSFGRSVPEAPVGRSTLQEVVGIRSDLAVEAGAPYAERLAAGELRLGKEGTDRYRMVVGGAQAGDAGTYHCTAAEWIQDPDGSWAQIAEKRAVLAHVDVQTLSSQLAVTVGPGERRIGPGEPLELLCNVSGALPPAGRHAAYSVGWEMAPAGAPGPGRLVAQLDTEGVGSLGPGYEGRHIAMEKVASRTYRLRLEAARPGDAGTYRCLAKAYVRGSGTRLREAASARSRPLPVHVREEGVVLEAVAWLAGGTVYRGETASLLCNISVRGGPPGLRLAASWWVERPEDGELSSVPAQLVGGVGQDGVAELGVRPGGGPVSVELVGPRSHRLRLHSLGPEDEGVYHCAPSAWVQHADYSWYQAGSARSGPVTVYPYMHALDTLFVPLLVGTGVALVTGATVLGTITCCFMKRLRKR
Description: (§1) Antibodies were generated using the common light chains B9, F10, C11, and H11 paired with 8 different heavy chains. […] Binding is expressed as Signal:Background for binding to the molecular target of the heavy chain antibody (listed at top of Table 4). Expression is based on binding to cells expressing an Fc-binding protein (the ZZ domain of ProA) (ZZ) on their surface, enabling total antibody to bind and be measured. Detection was using flow cytometry with cells transfected to express the target protein. Background binding S:B is normalized to 1.0, using mock-transfected cells as background. The data in the table below illustrate that the light chains can be used with a variety of heavy chains and the antibody generated from a VH that can bind to the light chains B9 and F10 will function and bind to the target of interest.

[2] = molecular target: T2, Fc-binding protein (the ZZ domain of ProA); experiment: flow cytometry on cells expressing the Fc-binding ZZ domain on their surface; given as a measure of expression
T2 construct: domain: ZZ domain of ProA; the construct is not described
Description: as §1

[3] = molecular target: T3, CD63 (UniProt P08962 2-238, limits assumed); experiment: flow cytometry on cells transfected with the target; signal over mock-transfected cells (background = 1.0)
T3 construct: whole, on cells
Description: as §1

[4] = molecular target: T4, CD151 (UniProt P48509 1-253, limits assumed); experiment: as above
T4 construct: whole, on cells
T4 sequence (looked up): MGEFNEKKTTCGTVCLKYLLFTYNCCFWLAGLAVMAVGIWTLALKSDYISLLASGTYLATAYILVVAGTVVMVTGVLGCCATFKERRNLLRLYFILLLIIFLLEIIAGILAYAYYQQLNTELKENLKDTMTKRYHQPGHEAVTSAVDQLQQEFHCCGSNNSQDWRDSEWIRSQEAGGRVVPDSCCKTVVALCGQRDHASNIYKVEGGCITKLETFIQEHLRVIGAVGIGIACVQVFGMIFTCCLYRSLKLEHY
Description: as §1

[5] = molecular target: T5, CD81 (UniProt P60033 1-236, limits assumed); experiment: as above
T5 construct: whole, on cells
T5 sequence (looked up): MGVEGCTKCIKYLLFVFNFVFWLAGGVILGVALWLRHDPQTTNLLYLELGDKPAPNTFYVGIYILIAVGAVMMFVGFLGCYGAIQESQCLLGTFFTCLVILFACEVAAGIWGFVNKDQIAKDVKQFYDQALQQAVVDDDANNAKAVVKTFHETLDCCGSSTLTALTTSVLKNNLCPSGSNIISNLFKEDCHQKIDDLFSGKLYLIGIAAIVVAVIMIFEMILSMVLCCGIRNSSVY
Description: as §1

Binder	S:B Binding [1]	S:B Expression [2]	S:B Binding [3]	S:B Binding [4]	S:B Binding [5]
Antibody of common light chain C11 (C11chicken) paired with the heavy chain against IGSF8 (antibody, V domains shown, also called HC-IGSF8) VH: AVTLDESGGGLQTPGGGLSLVCKASGFSISSYEMQWVRQAPGKGLEWVAGIDDDGSSRAYAPAVKGRATISRDNGQSTVRLQLNNLRAEDTGTYYCAKTIYAATLNAGEIDAWGHGTEVIVSS VL: ALTQPSSVSANPGETVKITCSGGGSWYGSYYYGWYQQKSPGSAPVTLIYNNDKRPSDIPSRFSGSESGSTATLTITGVQAEDEAVYFCGGYDSTTTDMFGAGTTLTVL	5.5 S:B	12 S:B	–	–	–
Antibody of common light chain C11 (C11chicken) paired with the heavy chain against CD147 (antibody, V domains shown, also called HC-CD147) VH: AVTLDESGGGLQTPGGGLSLVCKASGFTFSSYAMYWVRQAPGKGLQWVAGISRDGSSGRYGAAVKGRATISRDNGQSTVRLQLNNLRAEDTATYFCAKSGYGDYTSADEIDAWGHGTEVIVSS VL: ALTQPSSVSANPGETVKITCSGGGSWYGSYYYGWYQQKSPGSAPVTLIYNNDKRPSDIPSRFSGSESGSTATLTITGVQAEDEAVYFCGGYDSTTTDMFGAGTTLTVL	–	16.6 S:B	–	–	–
Antibody of light chain D3 (D3chicken) paired with the heavy chain against IGSF8 (antibody, V domains shown, also called HC-IGSF8) VH: AVTLDESGGGLQTPGGGLSLVCKASGFSISSYEMQWVRQAPGKGLEWVAGIDDDGSSRAYAPAVKGRATISRDNGQSTVRLQLNNLRAEDTGTYYCAKTIYAATLNAGEIDAWGHGTEVIVSS VL: ALTQPSSVSANPGETVKITCSGDDRWYGWYQQKSPGSAPVTLIYSNDKRPSDIPSRFSGSKSGSTGTLTITGVQADDEAVYFCGSRDSSYAGIFGAGTTLTVL	19.4 S:B	3.2 S:B	–	–	–
Antibody of light chain E1 (E1chicken) paired with the heavy chain against IGSF8 (antibody, V domains shown, also called HC-IGSF8) VH: AVTLDESGGGLQTPGGGLSLVCKASGFSISSYEMQWVRQAPGKGLEWVAGIDDDGSSRAYAPAVKGRATISRDNGQSTVRLQLNNLRAEDTGTYYCAKTIYAATLNAGEIDAWGHGTEVIVSS VL: ALTQPSSVSANPGETVKITCSGSSGSGYYGWYQQKSPGSAPVTLIYDNDKRPSDIPSRFSGSKSGSTGTLTITGVQADDEAVYFCGSADNNYTGIFGAGTTLTVL	18.1 S:B	2 S:B	–	–	–
Antibody of common light chain C11 (C11chicken) paired with the heavy chain against CD63 (antibody, V domains shown, also called HC-CD63) VH: AVTLDESGGGLQTPGGALSLVCKASGFTFSDRGMHWVRQAPGKGLEWVAGIRSTGSFTLYGAAVKGRATISRDDGQSTLRLQLNNLRAEDTGTYYCAKSAGGYGCGRGWCGVDDIDAWGHGTEVIVSS VL: ALTQPSSVSANPGETVKITCSGGGSWYGSYYYGWYQQKSPGSAPVTLIYNNDKRPSDIPSRFSGSESGSTATLTITGVQAEDEAVYFCGGYDSTTTDMFGAGTTLTVL	–	8.8 S:B	0.8 S:B	–	–
Antibody of light chain D3 (D3chicken) paired with the heavy chain against CD63 (antibody, V domains shown, also called HC-CD63) VH: AVTLDESGGGLQTPGGALSLVCKASGFTFSDRGMHWVRQAPGKGLEWVAGIRSTGSFTLYGAAVKGRATISRDDGQSTLRLQLNNLRAEDTGTYYCAKSAGGYGCGRGWCGVDDIDAWGHGTEVIVSS VL: ALTQPSSVSANPGETVKITCSGDDRWYGWYQQKSPGSAPVTLIYSNDKRPSDIPSRFSGSKSGSTGTLTITGVQADDEAVYFCGSRDSSYAGIFGAGTTLTVL	–	3.9 S:B	20.6 S:B	–	–
Antibody of light chain E1 (E1chicken) paired with the heavy chain against CD63 (antibody, V domains shown, also called HC-CD63) VH: AVTLDESGGGLQTPGGALSLVCKASGFTFSDRGMHWVRQAPGKGLEWVAGIRSTGSFTLYGAAVKGRATISRDDGQSTLRLQLNNLRAEDTGTYYCAKSAGGYGCGRGWCGVDDIDAWGHGTEVIVSS VL: ALTQPSSVSANPGETVKITCSGSSGSGYYGWYQQKSPGSAPVTLIYDNDKRPSDIPSRFSGSKSGSTGTLTITGVQADDEAVYFCGSADNNYTGIFGAGTTLTVL	–	24.4 S:B	31.8 S:B	–	–
Antibody of common light chain B9 (B9chicken) paired with the heavy chain against CD151 (antibody, V domains shown, also called HC-CD151) VH: AVTLDESGGGLQMPGGALSLVCKASGFTFSSYGMEWVRQAPGKGLEWVAGISSGGGSTDYGTAVKGRATISRDNGQSTVRLQLNNLRAEDTGTYFCAKSAYGGTWDGDDIDAWGHGTEVIVSS VL: ALTQPSSVSANPGETVKITCSGGGSSNYYGWYQQKSPGSAPVTLIYGTNKRPSDIPSRFSGSKSGSTGTLTITGVQADDEAVYFCGSADSSTNAGIFGAGTTLTVL	–	9.7 S:B	–	27.4 S:B	–
Antibody of light chain E1 (E1chicken) paired with the heavy chain against CD151 (antibody, V domains shown, also called HC-CD151) VH: AVTLDESGGGLQMPGGALSLVCKASGFTFSSYGMEWVRQAPGKGLEWVAGISSGGGSTDYGTAVKGRATISRDNGQSTVRLQLNNLRAEDTGTYFCAKSAYGGTWDGDDIDAWGHGTEVIVSS VL: ALTQPSSVSANPGETVKITCSGSSGSGYYGWYQQKSPGSAPVTLIYDNDKRPSDIPSRFSGSKSGSTGTLTITGVQADDEAVYFCGSADNNYTGIFGAGTTLTVL	–	11.3 S:B	–	28.8 S:B	–
Antibody of common light chain B9 (B9chicken) paired with the heavy chain against CD81 (antibody, V domains shown, also called HC-CD81) VH: AVTLDESGGGLQTPGGALSLVCKASGFSIGDYNMGWVRQAPGKGLEWVAGIDAGGGTWRATAVKGRATISRDNGQSTVRLQLNNLRAEDTATYFCAKSTDSSANCCANSIDAWGHGTEVIVSS VL: ALTQPSSVSANPGETVKITCSGGGSSNYYGWYQQKSPGSAPVTLIYGTNKRPSDIPSRFSGSKSGSTGTLTITGVQADDEAVYFCGSADSSTNAGIFGAGTTLTVL	–	10.8 S:B	–	–	0.6 S:B
Antibody of light chain D3 (D3chicken) paired with the heavy chain against CD151 (antibody, V domains shown, also called HC-CD151) VH: AVTLDESGGGLQMPGGALSLVCKASGFTFSSYGMEWVRQAPGKGLEWVAGISSGGGSTDYGTAVKGRATISRDNGQSTVRLQLNNLRAEDTGTYFCAKSAYGGTWDGDDIDAWGHGTEVIVSS VL: ALTQPSSVSANPGETVKITCSGDDRWYGWYQQKSPGSAPVTLIYSNDKRPSDIPSRFSGSKSGSTGTLTITGVQADDEAVYFCGSRDSSYAGIFGAGTTLTVL	–	6.5 S:B	–	47.5 S:B	–
Antibody of common light chain C11 (C11chicken) paired with the heavy chain against CD151 (antibody, V domains shown, also called HC-CD151) VH: AVTLDESGGGLQMPGGALSLVCKASGFTFSSYGMEWVRQAPGKGLEWVAGISSGGGSTDYGTAVKGRATISRDNGQSTVRLQLNNLRAEDTGTYFCAKSAYGGTWDGDDIDAWGHGTEVIVSS VL: ALTQPSSVSANPGETVKITCSGGGSWYGSYYYGWYQQKSPGSAPVTLIYNNDKRPSDIPSRFSGSESGSTATLTITGVQAEDEAVYFCGGYDSTTTDMFGAGTTLTVL	–	11.5 S:B	–	1.4 S:B	–
Antibody of common light chain B9 (B9chicken) paired with the heavy chain against IGSF8 (antibody, V domains shown, also called HC-IGSF8) VH: AVTLDESGGGLQTPGGGLSLVCKASGFSISSYEMQWVRQAPGKGLEWVAGIDDDGSSRAYAPAVKGRATISRDNGQSTVRLQLNNLRAEDTGTYYCAKTIYAATLNAGEIDAWGHGTEVIVSS VL: ALTQPSSVSANPGETVKITCSGGGSSNYYGWYQQKSPGSAPVTLIYGTNKRPSDIPSRFSGSKSGSTGTLTITGVQADDEAVYFCGSADSSTNAGIFGAGTTLTVL	1.7 S:B	12.7 S:B	–	–	–
Antibody of common light chain B9 (B9chicken) paired with the heavy chain against CD63 (antibody, V domains shown, also called HC-CD63) VH: AVTLDESGGGLQTPGGALSLVCKASGFTFSDRGMHWVRQAPGKGLEWVAGIRSTGSFTLYGAAVKGRATISRDDGQSTLRLQLNNLRAEDTGTYYCAKSAGGYGCGRGWCGVDDIDAWGHGTEVIVSS VL: ALTQPSSVSANPGETVKITCSGGGSSNYYGWYQQKSPGSAPVTLIYGTNKRPSDIPSRFSGSKSGSTGTLTITGVQADDEAVYFCGSADSSTNAGIFGAGTTLTVL	–	11.3 S:B	2.7 S:B	–	–
Antibody of common light chain B9 (B9chicken) paired with the heavy chain against CD147 (antibody, V domains shown, also called HC-CD147) VH: AVTLDESGGGLQTPGGGLSLVCKASGFTFSSYAMYWVRQAPGKGLQWVAGISRDGSSGRYGAAVKGRATISRDNGQSTVRLQLNNLRAEDTATYFCAKSGYGDYTSADEIDAWGHGTEVIVSS VL: ALTQPSSVSANPGETVKITCSGGGSSNYYGWYQQKSPGSAPVTLIYGTNKRPSDIPSRFSGSKSGSTGTLTITGVQADDEAVYFCGSADSSTNAGIFGAGTTLTVL	–	17 S:B	–	–	–
